This experiment has as its target fHbp^V1.1:PorA^267/P1.16 (Neisseria meningitidis (MC58 genomic DNA) | Neisseria meningitidis) (UniProt Q9JXV4). As to the kind of experiment: SPR.

“human complement FH domains 6 and 7 (from UniProt P08603 321-443) (domain or fragment)”: the fold reduction of CFH binding worked out at 8 fold.

These data come from publication doi:10.1101/187336.
